From patent publication EP2155781B1 come the findings set out here.

Assay [1] has as its target adrenomedullin receptors in the lungs of dogs (binding profile of the AM1 receptor, CRLR+RAMP2) (dog). As to the kind of experiment: cell-based or functional assay.
Assay [2] has the same target. Briefly: displacement of iodine-marked hAM in dog lungs.

No end group written: not given here.

In turn, “125I-rAM(1-50), 125I labelled rat adrenomedullin (from UniProt P43145 94-143) (peptide)” registered a mean single-pass pulmonary extraction of 125I-rAM(1-50) in dogs in vivo (indicator dilution), baseline in assay [1] of 36.4%. In assay [2], “linear human adrenomedullin hAM(1-52) (peptide)” returned a half-inhibitory concentration (IC50) of 7.1 nM.

For the molecule “hCGRP (from UniProt P06881 83-119) (peptide)”, the IC50 in assay [2] amounted to 440 nM.

On to “CGRP (Phoenix Pharmaceuticals) (peptide)”, for which, in assay [1], the mean single-pass pulmonary extraction of 125I-rAM(1-50) in dogs after CGRP (100 nmol) turned out to be 40.6% and the mean single-pass pulmonary extraction of 125I-rAM(1-50) in dogs, control before CGRP was 44.6%. “unlabelled rAM(1-50) (from UniProt P43145 94-143) (peptide)” registered a mean single-pass pulmonary extraction of 125I-rAM(1-50) in dogs after administration of unlabelled rAM(1-50) (100 nmol) in assay [1] of 21.9%.

In the case of “N-terminal acetylated human adrenomedullin (peptide)”, the IC50 in assay [2] is 0.041 nM. In turn, “human adrenomedullin hAM(1-52), cyclic (peptide)” yielded an IC50 in assay [2] of 0.055 nM. Turning to QVQNLSHRLWQLMGPAGRQDSAPVDPSSPHSY (peptide, UniProt Q7Z4H4 116-147, looked up, ends and bridges not checked) [hAM2(16-47)], in assay [2], the IC50 amounted to 980 nM. As for TVQKLAHQIYQFTDKDKDNVAPRSKISPQGY-NH2 [hAM(22-52)], in assay [1], the mean single-pass pulmonary extraction of 125I-rAM(1-50) in dogs after hAM(22-52) (100 nmol) was found to be 31.4% and the mean single-pass pulmonary extraction of 125I-rAM(1-50) in dogs before hAM(22-52) was determined as 40%. The IC50 in assay [2] amounted to 810 nM. Molecule TQAQLLRVGCVLGTCQVQNLSHRLWQLMGPAGRQDSAPVDPSSPHSY (peptide, UniProt Q7Z4H4 101-147, looked up) [hAM2] had an IC50 in assay [2] of 480 nM. Still for that read-out and setting: the same measure for SFGCRFGTCTVQKLAHQIYQFTDKDKDNVAPRSKISPQGY-NH2 (ends and bridges not checked) [hAM(13-52)]: 34 nM.

By IC50 is commonly meant the midpoint of a concentration-inhibition curve. A high value points to weaker potency.
